The values below come from patent US20080182795A1 (BOSTON MEDICAL CENTER, published 2008).

Where no end group is shown, it is not given here.

Experiment [1] has as its target T1, rat GIP receptor (rat, UniProt P43219 19-455).
T1 construct: whole, on cells; LGIPR2 cells also carry a cAMP-dependent VIP promoter-lacZ reporter; also called LGIPR2 cells; LGIRP2 cells
T1 sequence (looked up): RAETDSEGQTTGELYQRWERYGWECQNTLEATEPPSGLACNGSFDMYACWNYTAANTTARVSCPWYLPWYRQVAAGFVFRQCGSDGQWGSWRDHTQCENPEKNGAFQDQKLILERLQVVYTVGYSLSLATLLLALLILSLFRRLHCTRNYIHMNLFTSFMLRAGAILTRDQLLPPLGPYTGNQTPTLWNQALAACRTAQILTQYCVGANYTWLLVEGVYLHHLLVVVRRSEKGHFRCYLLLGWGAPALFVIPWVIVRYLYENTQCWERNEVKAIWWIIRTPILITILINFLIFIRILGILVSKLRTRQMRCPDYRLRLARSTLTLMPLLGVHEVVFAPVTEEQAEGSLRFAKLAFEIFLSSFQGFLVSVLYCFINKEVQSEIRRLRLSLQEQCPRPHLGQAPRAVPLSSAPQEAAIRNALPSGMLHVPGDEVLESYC
Put plainly: competition with [125I]GIP (porcine) for binding to LGIPR2 cells carrying the rat GIP receptor, room temperature. On the procedure: (§1) The specific activity of radiolabeled peptides was 10-50 μCi/mg (Hunter, et al., 1962, Nature, 194:495-498; Kieffer, et al., 1993, Can. J Physiol. Pharmacol., 71:917-922). Aliquots were lyophilized and reconstituted in assay buffer at 4° C. to a concentration of 3×10⁵ cpm/100 μl. […] The receptor binding buffer contained 138 mM NaCl, 5.6 mM KCl, 1.2 mM MgCl₂, 2.6 mM CaCl₂, 10 mM Hepes, 10 mM glucose, and 1% bovine serum albumin (BSA, fraction V, protease free, Sigma). […] Cells were washed once with PBS and then harvested with PBS-EDTA solution. βTC3 cells were then suspended in assay buffer at a density of 2×10⁶ cells/ml, and LGIPR2 cells were used at a density of 2.5×10⁵ cells/ml. […] Specific binding was defined as the difference between counts in the absence and presence of unlabeled peptide. […] Values are expressed as a percentage of maximum specific binding and are the mean ±SE, with assays performed in duplicate.

Experiment [2] has as its target T2, GLP-1 receptor of βTC3 cells (mouse, UniProt O35659 22-463).
T2 construct: whole, on cells; also called βTC3 cell receptor; GLP-1 receptors
T2 sequence (looked up): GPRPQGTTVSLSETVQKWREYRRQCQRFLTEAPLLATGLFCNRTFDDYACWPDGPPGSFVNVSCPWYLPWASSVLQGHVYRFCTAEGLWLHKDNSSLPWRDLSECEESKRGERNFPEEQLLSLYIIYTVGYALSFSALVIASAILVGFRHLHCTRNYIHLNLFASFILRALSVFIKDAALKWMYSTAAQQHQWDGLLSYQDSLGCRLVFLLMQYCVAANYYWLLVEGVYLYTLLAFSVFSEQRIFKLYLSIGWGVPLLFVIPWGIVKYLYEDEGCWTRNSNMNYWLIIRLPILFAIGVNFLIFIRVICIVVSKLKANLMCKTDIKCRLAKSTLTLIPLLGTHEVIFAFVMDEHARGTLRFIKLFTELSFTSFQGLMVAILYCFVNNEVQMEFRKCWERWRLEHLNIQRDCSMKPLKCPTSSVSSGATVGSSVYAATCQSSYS
Put plainly: competition with [125I]GLP-1 for binding to βTC3 cells (GLP-1 receptor), room temperature. As to the method: as §1

Turning to ISDYSIAMDKIRQQDFVNWLLAQK-NH2 (also called ANTGIP; ANTGIIP) [GIP (7-30)-NH2], the IC50 (as a rule, the concentration that inhibits the measured activity by half) worked out at 0.2 µM in experiment [1] and 80 µM in experiment [2].
